Changes are numbered by the printed parent chain. Names may count otherwise.
B1: aluC09M17: cytochrome P450 aluC09 mutant T291N; amino acid sequence SEQ ID NO: 16 (protein, listed as Amycolatopsis lurida)
chain: MTDVEETTATLPLARKCPFSPPPEYERLRRESPVSRVGLPSGQTAWALTRLEDIREMLSSPHFSSDRQSPSFPLMVARQIRREDKPFRPSLIAMDPPEHSRARRDVVGEFTVKRMKALQPRIQQIVDEHLDALLAGPKPADLVQALSLPVPSLVICELLGVPYSDHEFFQSCSSRMLSREVTAEERMTAFEQLENYLDELVTKKEANATEDDLLGRQILKQRETGEADHGELVGLAFLLLIAGHETTANMISLGTVTLLENPDQLAKIKADPGKTLAAIEELLRVFTIAENATSRFATADVEIGGTLIRAGEGVVGLSNAGNHDPDGFENPDTFDIERGARHHVAFGFGVHQCLGQNLARLELQIVFDTLFRRVPGLRIAVPVDELPFKHDSTIYGLHALPVTW
B2: aluC09M36: cytochrome P450 aluC09 mutant T291F; amino acid sequence SEQ ID NO: 56 (protein, listed as Amycolatopsis lurida)
chain: B1 chain with N291F
B3: aluC09M31: cytochrome P450 aluC09 mutant T291S; amino acid sequence SEQ ID NO: 36 (protein, listed as Amycolatopsis lurida)
chain: B1 chain with N291S
B4: aluC09M37: cytochrome P450 aluC09 mutant T291W; amino acid sequence SEQ ID NO: 60 (protein, listed as Amycolatopsis lurida)
chain: B1 chain with N291W

test: Hydroxylation / de-N-ethylation of napropamide catalysed by cytochrome P450 aluC09 and mutants; format: biochemical; details: % by UV peak area at 275 nm; 0.125 mg/ml substrate, 27° C., 16-20 hours
Summary of the method: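 Conversion of napropamide (0.125 mg/ml) to hydroxylated and de-ethylated metabolites was measured by UPLC-MS after acetonitrile extraction. Reactions ran 16-20 h at 27° C in pH 7.4 potassium phosphate (50 mM) with 5 mM MgCl2, 1 mM NADP, 5 mM G6P and 2 UN/ml G6PDH. Enzymes were lyophilised P450 aluC09 variants, ferredoxin aluF03 and ferredoxin reductase SCF15A.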

| Molecule | Desethyl Napropamide (1.62 min) [%] | Desethyl-hydroxy-Napropamide (1.41 min) [%] | Hydroxy-Napropamide (1) (1.53 min) [%] | Hydroxy-Napropamide (2), (1.52 min) [%] | M-2Da (unidentified) (1.89 min) [%] | Napropamide (substrate) [%] |
| --- | --- | --- | --- | --- | --- | --- |
| B1 | 53.7 | 10.6 | 0.9 | 3.1 | 6.0 | 28.7 |
| B2 | 40.5 | 3.1 | 1.2 | 3.5 | 6.3 | 46.8 |
| B3 | 44.8 | 4.6 | 2.4 | 5.1 | 7.0 | 37.9 |
| B4 | 40.1 | 3.3 | 1.6 | 3.3 | 6.0 | 47.3 |

same assay, conditions: napropamide; ratio of UV peak areas

| Molecule | Hydroxylated Ratio 2:1 |
| --- | --- |
| B1 | 3.4 |
| B2 | 3.0 |
| B3 | 2.1 |
| B4 | 2.1 |

test: Metabolism of buparvaquone by P450 aluC09 and mutants; format: biochemical; details: percent of substrate being converted; 0.125 mg/ml, 27° C., 16-20 hours; [CYP] per enzyme as in Table 8
Summary of the method: (§1)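 Biotransformation: CYP aluC09 mutant + ferredoxin aluF03 + reductase SCF15A, 0.125 mg/ml substrate, KPi 50 mM pH 7.4, MgCl2 5 mM, G6P/NADP/G6PDH recycling; 27° C, 16-20 h shaking; MeCN quench, UPLC-MS conversion.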

| Molecule | % conversions (avg) Buparvaquone [%] |
| --- | --- |
| B1 | 17.9 |
| B2 | 9.5 |
| B3 | 11.3 |
| B4 | 10.5 |

test: Metabolism of BIRB796 by P450 aluC09 and mutants; format: biochemical; details: percent of substrate being converted; 0.125 mg/ml, 27° C., 16-20 hours; [CYP] per enzyme as in Table 8
Summary of the method: as §1

| Molecule | % conversions (avg) BIRB796 [%] |
| --- | --- |
| B1 | 23.2 |
| B2 | 20 |
| B3 | 15.3 |
| B4 | 10 |

test: Metabolism of valsartan by P450 aluC09 and mutants; format: biochemical; details: percent of substrate being converted; 0.125 mg/ml, 27° C., 16-20 hours; [CYP] per enzyme as in Table 8
Summary of the method: as §1

| Molecule | % conversions (avg) Valsartan [%] |
| --- | --- |
| B1 | 21.9 |
| B2 | 45.7 |
| B3 | 33.9 |
| B4 | 41 |

test: Metabolism of 4-pyrrolidylacetophenone by P450 aluC09 and mutants; format: biochemical; details: percent of substrate being converted; 0.125 mg/ml, 27° C., 16-20 hours; [CYP] per enzyme as in Table 8
Summary of the method: as §1

| Molecule | % conversions (avg) 4-pyrrolidylacetophenone [%] |
| --- | --- |
| B1 | 21.7 |
| B2 | 6.8 |
| B3 | 4.9 |
| B4 | 7.3 |

test: Metabolism of celecoxib by P450 aluC09 and mutants; format: biochemical; details: percent of substrate being converted; 0.125 mg/ml, 27° C., 16-20 hours; [CYP] per enzyme as in Table 8
Summary of the method: as §1

| Molecule | % conversions (avg) Celecoxib [%] |
| --- | --- |
| B1 | 8.1 |
| B2 | 5.7 |
| B3 | 3.6 |
| B4 | 7.2 |

test: Metabolism of tofacitinib by P450 aluC09 and mutants; format: biochemical; details: percent of substrate being converted; 0.125 mg/ml, 27° C., 16-20 hours; [CYP] per enzyme as in Table 8
Summary of the method: as §1

| Molecule | % conversions (avg) Tofacitinib [%] |
| --- | --- |
| B1 | 4.4 |
| B2 | 2.4 |
| B3 | 1.5 |
| B4 | 0.9 |

test: Metabolism of bosentan by P450 aluC09 and mutants; format: biochemical; details: percent of substrate being converted; 0.125 mg/ml, 27° C., 16-20 hours; [CYP] per enzyme as in Table 8
Summary of the method: as §1

| Molecule | % conversions (avg) Bosentan [%] |
| --- | --- |
| B1 | 100 |
| B2 | 99.5 |
| B3 | 99 |
| B4 | 98.6 |

test: Metabolism of epothilone B by P450 aluC09 and mutants; format: biochemical; details: percent of substrate being converted; 0.125 mg/ml, 27° C., 16-20 hours; [CYP] per enzyme as in Table 8
Summary of the method: as §1

| Molecule | % conversions (avg) Epothilone B [%] |
| --- | --- |
| B1 | 16.8 |
| B2 | 62.3 |
| B3 | 35.3 |
| B4 | 50.2 |

test: Metabolism of tivantinib by P450 aluC09 and mutants; format: biochemical; details: percent of substrate being converted; 0.125 mg/ml, 27° C., 16-20 hours; [CYP] per enzyme as in Table 8
Summary of the method: as §1

| Molecule | % conversions (avg) Tivantinib [%] |
| --- | --- |
| B1 | 53.9 |
| B2 | 30.4 |
| B3 | 56 |
| B4 | 31 |

test: Metabolism of ritonavir by P450 aluC09 and mutants; format: biochemical; details: percent of substrate being converted; 0.125 mg/ml, 27° C., 16-20 hours; [CYP] per enzyme as in Table 8
Summary of the method: as §1

| Molecule | % conversions (avg) Ritonavir [%] |
| --- | --- |
| B1 | 51.7 |
| B2 | 73.8 |
| B3 | 73.5 |
| B4 | 64.1 |

test: Hydroxylation of diclofenac catalysed by cytochrome P450 aluC09 and mutants (UPLC-PDA-MS); format: biochemical; details: % by UV peak area at 275 nm; 0.125 mg/ml substrate, 27° C., 16-20 hours
Summary of the method: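 Lyophilised CYP450aluC09 or mutants, with ferredoxin aluF03 and reductase SCF15A, incubated 16-20 hours at 27° C with 0.125 mg/ml diclofenac in 50 mM potassium phosphate pH 7.4, 5 mM MgCl2, and G6P/NADP/G6PDH regeneration. Acetonitrile-extracted; conversion by UPLC-PDA-MS against authentic hydroxylated standards.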

| Molecule | 4′,5-dihydroxy-diclofenac 1.38 mins [%] | 4′-hydroxy-diclofenac (1) 1.62 mins [%] | 5-hydroxy-diclofenac (2) 1.58 mins [%] | Diclofenac (Substrate) 1.81 mins [%] |
| --- | --- | --- | --- | --- |
| B1 | 3.2 | 44.8 | 21.8 | 32.3 |
| B2 | 3.6 | 42.8 | 23.0 | 33.0 |
| B3 | 3.3 | 43.3 | 22.8 | 32.3 |
| B4 | 1.9 | 31.4 | 15.9 | 51.8 |

same assay, conditions: diclofenac; ratio of UV peak areas at 275nm

| Molecule | Hydroxylated Ratio hydroxy 1:hydroxy 2 |
| --- | --- |
| B1 | 2.1 |
| B2 | 1.9 |
| B3 | 1.9 |
| B4 | 2.0 |

test: Hydroxylation of aceclofenac catalysed by cytochrome P450 aluC09 and mutants; format: biochemical; details: % by UV peak area at 275 nm; 0.125 mg/ml substrate, 27° C., 16-20 hours
Summary of the method: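 Conversion was assessed by UPLC-MS (UV and MS detection) after acetonitrile extraction of reactions run 16-20 h at 27° C, shaking. Reactions contained substrate at 0.125 mg/ml, P450 mutant plus ferredoxin and reductase partners, 1 mM NADP with glucose-6-phosphate regeneration, in phosphate buffer pH 7.4.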

| Molecule | Aceclofenac (Substrate) (1.80 mins) [%] | Dihydroxy-Aceclofenac (1.42 mins) [%] | Hydroxy-Aceclofenac (1) (1.64 min) [%] | Hydroxy-Aceclofenac (2) (1.60 min) [%] |
| --- | --- | --- | --- | --- |
| B1 | 9.2 | 43.2 | 6.9 | 40.8 |
| B2 | 9.3 | 44.6 | 7.2 | 38.9 |
| B3 | 12.3 | 43.1 | 8.5 | 36.1 |
| B4 | 4.2 | 56.0 | 4.5 | 35.3 |

same assay, conditions: aceclofenac; ratio of UV peak areas at 275 nm

| Molecule | Hydroxylated Ratio 2:1 |
| --- | --- |
| B1 | 5.9 |
| B2 | 5.4 |
| B3 | 4.2 |
| B4 | 7.8 |

test: Hydroxylation of flufenamic acid catalysed by cytochrome P450 aluC09 and mutants; format: biochemical; details: % by UV peak area at 275 nm; 0.125 mg/ml substrate, 27° C., 16-20 hours
Summary of the method: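 Lyophilised CYP450aluC09 mutants with ferredoxin aluF03 and reductase SCF15A, in 50 mM potassium phosphate pH 7.4, 5 mM MgCl2, 0.125 mg/ml flufenamic acid, G6P/NADP/G6PDH NADPH regeneration. Shaken 16-20 h at 27° C; acetonitrile-quenched, conversion to two hydroxy products by UPLC-MS.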

| Molecule | Flufenamic Acid (Substrate) 1.93 mins [%] | Hydroxy-Flufenamic Acid (1) 1.69 mins [%] | Hydroxy-Flufenamic Acid (2) 1.65 mins [%] |
| --- | --- | --- | --- |
| B1 | 94.4 | 3.4 | 2.2 |
| B2 | 89.8 | 7.7 | 2.6 |
| B3 | 89.1 | 6.8 | 4.1 |
| B4 | 91.3 | 6.4 | 2.2 |

same assay, conditions: flufenamic acid; ratio of UV peak areas at 275 nm

| Molecule | Hydroxylated Ratio 1:2 |
| --- | --- |
| B1 | 1.6 |
| B2 | 3.0 |
| B3 | 1.7 |
| B4 | 2.9 |

test: Metabolism of ruxolitinib by P450 aluC09 and mutants; format: biochemical; details: percent of substrate being converted; 0.125 mg/ml, 27° C., 16-20 hours; [CYP] per enzyme as in Table 8
Summary of the method: as §1

| Molecule | % conversions (avg) Ruxolitinib [%] |
| --- | --- |
| B1 | 33.9 |
| B2 | 42.1 |
| B3 | 41.7 |
| B4 | 34.2 |

test: O-demethylation of indomethacin catalysed by cytochrome P450 aluC09 and mutants; format: biochemical; details: % by UV peak area at 275 nm; 0.125 mg/ml substrate, 27° C., 16-20 hours
Summary of the method: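 Lyophilised CYP450aluC09 mutants with ferredoxin aluF03 and reductase SCF15A, 0.125 mg/ml substrate, 50 mM potassium phosphate pH 7.4, 5 mM MgCl2, G6P/G6PDH/NADP recycling. Shaken 16-20 h at 27° C. Acetonitrile-quenched, conversion measured by UPLC-MS.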

| Molecule | Indomethacin (1.74 mins) [%] | O-demethyl-Indomethacin (1.52 mins) [%] |
| --- | --- | --- |
| B1 | 84.4 | 15.6 |
| B2 | 80.3 | 19.7 |
| B3 | 84.8 | 15.2 |
| B4 | 89.0 | 11.0 |

From patent US11618906B2, “Hydroxylation techniques” (HYPHA DISCOVERY LTD., priority 2018, dated 2023)
